Legend:
[1] = biological target: C-terminal truncation mutant of tetradecamer GroEL, Δ526 (E. coli) (UniProt P0A6F5); assay: cryo-EM structure; acid-urea denatured PepQ (7 μM final) titrated into GroEL or Δ526 (8 μM tetradecamers) in TKM buffer, no nucleotide, room temperature 5 min; asymmetric 3D classification and refinement
PepQ-24TMR (E. coli) [2] = biological target: PepQ-24TMR (E. coli) (UniProt P21165); assay: single-molecule two-colour co-incidence detection; PepQ-24OG and PepQ-24TMR 1:1, denatured in acid-urea, spontaneous folding at 2 nM monomer in TKM buffer with 0.1 mg ml^-1 BSA, 23 °C, 10 min, then diluted 20-fold to 100 pM
PepQ-24TMR (E. coli) [3] = biological target: PepQ-24TMR (E. coli) (UniProt P21165); assay: single-molecule two-colour co-incidence detection; PepQ-24OG and PepQ-24TMR 1:1, denatured, refolded at 100 nM total monomer with GroEL, GroES and ATP at 23 °C, then diluted 1,000-fold to 100 pM; cross-correlation of fluorescence bursts
[4] = biological target: C-terminal truncation mutant of tetradecamer GroEL, Δ526 (E. coli) (UniProt P0A6F5)

C-terminal truncation mutant of tetradecamer GroEL, Δ526 (from UniProt P0A6F5 2-526) (domain or fragment)
stoichiometry N [1]: 14

PepQ-24OG (from UniProt P21165 1-443) (enzyme)
co-incidence (PepQ-24TMR (E. coli) [2]): < 1%
co-incidence (most likely overlap) (PepQ-24TMR (E. coli) [2]): 0.75%
coincident fraction (PepQ-24TMR (E. coli) [3]): 10%

wild type E. coli PepQ (from UniProt P21165 1-443) (enzyme)
observed folding rate constant of PepQ by recovery of enzymatic activity, bound to Δ526 (200 nM) and refolded with GroES (400 nM) and ATP (2 mM) [4]: 0.106 min⁻¹

— PMC5497066
